Article PMC5869385

Target: Torpedo muscle-type α1_(2)β1γδ nicotinic acetylcholine receptor (Torpedo marmorata (endogenous in electric organ)) (UniProt P02711)
Assay: radioligand binding

Question: Which Ki does the source give for “α-cobratoxin from Naja kaouthia (from UniProt P01391 1-71) (natural protein)” here?
Answer: The Ki was 397 pM.
